Reference: patent US20240415884A1

Target: T1, CD276 expressed on cells (Du145, PC3, CD276+ 293T, CHO-K1-CD276-Luci cells) (human) (UniProt Q5ZPR3)
T1 sequence (looked up): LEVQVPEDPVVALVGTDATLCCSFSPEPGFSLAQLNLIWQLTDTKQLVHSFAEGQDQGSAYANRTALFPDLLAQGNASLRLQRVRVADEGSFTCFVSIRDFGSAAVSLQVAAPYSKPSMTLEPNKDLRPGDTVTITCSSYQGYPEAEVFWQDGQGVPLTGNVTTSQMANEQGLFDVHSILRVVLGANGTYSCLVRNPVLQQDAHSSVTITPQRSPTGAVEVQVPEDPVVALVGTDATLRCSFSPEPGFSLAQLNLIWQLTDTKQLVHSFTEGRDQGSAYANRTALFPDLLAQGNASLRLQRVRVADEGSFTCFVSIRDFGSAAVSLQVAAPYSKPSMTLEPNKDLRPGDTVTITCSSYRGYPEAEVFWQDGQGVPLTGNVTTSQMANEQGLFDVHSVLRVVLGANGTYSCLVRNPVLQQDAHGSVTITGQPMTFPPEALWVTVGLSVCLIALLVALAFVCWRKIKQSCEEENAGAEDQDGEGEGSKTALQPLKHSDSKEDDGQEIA

B1: BiTE #5 (bispecific antibody, part only; not given: anti-CD3 scFv, part only)
chain, part: EVQLVESGGGLVQPGGSLRLSCAASPFPFTIYEMSWVRQASGKALEWIGYINHSGSTNYNPSLKSRVTISRDNSKNTLYLQMNSLRAEDTAMYYCAILAPDYWGQGTLVTVSSGGGGSGGGGSGGGGS
With B1 the EC50 (read off the curve), percent lysis was 8 nM.
